104 substances from the supplement of paper PMC12042874 can be followed below.

± gives the uncertainty stated by the source.

A short description of this data set: amyloid nucleation score (Sup35N fusion, yeast selection) (log enrichment); library NNK2; higher = more nucleation; inactive = no reads after selection. Put shortly: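 The nucleation score is a DiMSum log enrichment of output over input reads, centred on the mode score of non-aggregating sequences. Sequences under 100 input reads were excluded, and reads came from Illumina sequencing of plasmid inserts. Psi-negative yeast expressing Sup35N fused to peptides of 20 random codons were induced with 100 μM copper sulfate for 24 hours and grown 7 days at 30°C on medium lacking adenine and uracil. Random libraries had three technical output replicates.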
On to FDTRITMMCALWTFPAT, for which the amyloid nucleation score was 7.15 ± 0.079.
Regarding FDVLMRSTGRANKKFLVCRQ, the amyloid nucleation score is -0.033 ± 0.38.
Then FDYLVNIRHGCTWCRTTI, with -0.108 ± 0.4.
Then FEAFLSMWIFAPECLRAHSV, with -0.288 ± 1.1; and FEGNGCSILWLSFCRWAQ, with 0.98 ± 0.4; and FEGSLPVPDGEEAWCAQRMS, with -0.006 ± 0.45.
As for FEIDCIKIVCKASYHGLSGT, the amyloid nucleation score stood at 2.99 ± 0.1.
Then FEIGGHIDCETGVCCGVAVM, with 4.56 ± 0.052.
FEIWWLVGVVFWMVSGVNTV displayed an amyloid nucleation score of -0.074 ± 0.22.
Then FFCSSRPDE, with -0.286 ± 0.8.
FFDSLGAGRYNRIRRWLSVV returned an amyloid nucleation score of -1.33 ± 0.44.
As for FFDSSCIFITHLL, the amyloid nucleation score stood at 1.77 ± 0.18.
Then FFESCRLVNFELLVLSFFIG, with -0.527 ± 0.28; and FFNMMSK, with -1.72 ± 0.62; and FFQQRCYVVFAIMTSSGADD, with 0.864 ± 0.12.
As for FFRGSYTRAWH, the figure is 0.967 ± 0.29.
As for FFSMRVIIMFERNSSVFAVQ, the figure is 4.1 ± 0.11; as for FFSVHEDRREKYLSNNV, -2.15 ± 1.1.
Consider FFTCFTYCDCHNPVMI, for which the amyloid nucleation score is 3.28 ± 0.12.
Substance FFTIVMRRSILFCIFLVIDA came in with an amyloid nucleation score of -1.6 ± 0.49.
Then FFVTAPIGMFSLD, with -2.17 ± 0.44; and FGADNGSPRSE, with -0.354 ± 0.76.
Then FGCPIVPVISIGFPLYGVYY, with 1.1 ± 0.3.
Then FGGIFCFSLYR, with 3.52 ± 0.071; and FGKAF, with -0.375 ± 0.79; and FGKNLTRMSDGGTVVPLRRN, with 0.255 ± 0.8.
Consider FGLRIKPGEKV, for which the amyloid nucleation score amounted to 0.783 ± 0.74.
FGNSDLNRAMLKRAKQMRSL: the amyloid nucleation score result is “inactive”.
On to FGRGSRLLLCAGFPLLNSYA, for which the amyloid nucleation score is -0.356 ± 1.1.
Then FGSIFNSYVNEWRSLLCNID, with -1.67 ± 0.39; and FGSVEVVRRIRSFWLFESPR, with 3.58 ± 0.14.
For the substance FGTRHYLYSTSHHAHLGVDM, the amyloid nucleation score worked out at 1.83 ± 0.21.
FGVLYLDFCSIA had an amyloid nucleation score of 3.93 ± 0.087.
As to FGVNS, the amyloid nucleation score was -0.021 ± 0.63.
Then FGWAL, with “inactive”; and FGWLALTKR, with -1.16 ± 0.34; and FHGPKYMSILRGELICKAPG, with “inactive”.
FHLLVVNFDTSLPLRQWKLE: the amyloid nucleation score is 0.059 ± 0.3.
Then FHVIGRR, with 0.951 ± 0.58; and FIEGVRMHLRGM, with 2.86 ± 0.094; and FIGNF, with 0.636 ± 0.19.
Regarding FIHRDGYSFDQVGFMGACF, the amyloid nucleation score came out at 0.092 ± 1.1.
As for FIKMSNSWAYDAEFSVPLHM, the figure is 3.84 ± 0.047; as for FIKRAHVERFSLPKTPWSVD, -1.3 ± 1; as for FILPRLIFAGQLSCGFARGV, -1.17 ± 0.76.
Then FILRGDNLC, with -1.01 ± 1; and FIMYFYKRTNYNFIKYHASA, with 1.52 ± 0.15; and FINWHGMHSL, with 0.89 ± 0.16.
Turning to FIQVSHCYAKMPYTTVTPGA, the amyloid nucleation score was -0.191 ± 0.79.
Take FIRNYWSVYGRWSANIFDDL: the amyloid nucleation score was 0.48 ± 0.45.
As for FIRSSIVWCC, the figure is 6.04 ± 0.077.
As for FIVMEVVEERCMSIVVESNQ, the figure is -0.804 ± 0.61; as for FIYIVAFPIREISGLSNL, “inactive”; as for FIYSHYWWLWLYHTATVIPH, -1.45 ± 0.62.
As for FKAHIR, the entry is “inactive”; as for FKAILGG, “inactive”.
In turn, FKCNIYYSFRYGSI displayed an amyloid nucleation score of 7.18 ± 0.026.
As for FKFVGNSQAQVWNMCESNDS, the figure is -0.369 ± 0.64; as for FKFVYNVKCPYWWTLSFMEV, 0.75 ± 0.47.
On to FKKTLTGCYGGGRGAMNNGK, for which the amyloid nucleation score result was “inactive”.
FKNCDGRNIRSSHNPFNMVR came in with an amyloid nucleation score of -0.857 ± 0.34.
Then FKPYF, with “inactive”.
In the case of FKRPDSKIVCDVNVKGALKE, the amyloid nucleation score entry was “inactive”.
Turning to FKSCLAGVGLFILMRFHNIA, the amyloid nucleation score entry was “inactive”.
On to FKVTTFYHGLSSMKDVASSY, for which the amyloid nucleation score was -0.95 ± 0.45.
Then FLACQYNCLVDSMG, with 3.26 ± 0.051; and FLCTNGGPLALSNGWVTSGE, with 0.274 ± 0.62; and FLGEVCQWDRMIVARVKATR, with -0.063 ± 0.29.
Substance FLICGHCWGPNTYYNTSVLM yielded an amyloid nucleation score of 7.8 ± 0.061.
Turning to FLKGPTEECQLRPSLRTNLQ, the amyloid nucleation score worked out at 0.069 ± 0.23.
Regarding FLKTKSFMVKMTGVNNQVFL, the amyloid nucleation score is 5.96 ± 0.071.
Then FLNNDRYRR, with -1.67 ± 0.78; and FLPYVIRRGWSCCPSGKWRN, with 0.03 ± 0.55.
Then FLRENLCTDVGLTHVCCTYT, with “inactive”.
As for FLRNPPYESTTQGGRPKGAH, the figure is 0.134 ± 0.51; as for FLSKFSCEVKTPDLMSCGKG, 4.04 ± 0.096; as for FLVFHPRDSMNI, 1.49 ± 0.44.
Substance FLVHCNILALNTCHLVYL had an amyloid nucleation score of 5.07 ± 0.089.
As for FLVLFASVPKEVPLAYRVVK, the figure is -0.898 ± 0.61.
As for FMDRFLSWFCHE, the figure is 1.26 ± 0.37; as for FMELLYHSASYSARFTRKSR, 2.69 ± 0.098.
As for FMIFDVGNSGKYLLSVS, the figure is -0.774 ± 0.27; as for FMLSVPNVDRFVRRMLGTPE, 1.05 ± 0.42.
With FMLVV, the amyloid nucleation score result was “inactive”.
Then FMLYMRLCKFYYFFGS, with -1.29 ± 0.41; and FMRFARMCS, with 0.256 ± 0.16.
FMTNGFFVSLWFTCGDSVLS: the amyloid nucleation score was 5.68 ± 0.078.
As to FNCGASKNSLKNEGKW, the amyloid nucleation score is -0.925 ± 0.63.
Take FNIRSFICV: the amyloid nucleation score entry is “inactive”.
Then FNLADSTSSVTP, with 0.048 ± 0.65; and FNLLEVTRPPMRMMGMM, with 2.3 ± 0.076; and FPENDWL, with -0.552 ± 0.44.
As for FPFFLHLFNYLLVRCLTVGF, the entry is “inactive”; as for FPFSGFVDFSVLVLRYKGSP, 1.82 ± 0.16; as for FPLRCFTIFSMRASNF, 0.615 ± 0.66.
As for FQIRT, the entry is “inactive”; as for FQMMCSIDFNKCLPWLFS, “inactive”.
FQNITVYSFRATGVTGQRSC gave an amyloid nucleation score of -0.447 ± 0.5.
Then FQRFVIK, with -2.12 ± 0.44.
As for FRFVEFNNSGNVCPLIFTLS, the amyloid nucleation score was -0.266 ± 0.65.
For FRILFGFRCNLRGSSQVLIG, the amyloid nucleation score result was “inactive”.
As for FRLILWPIDCAINTNRRCNR, the figure is 4.38 ± 0.051; as for FRLYFHPGVNGAET, -0.356 ± 0.64; as for FRNTWFCFLLKLLTS, -0.818 ± 0.42.
